# Earlier results in US20050054617A1, “Use of potent, selective and non toxic c-kit inhibitors for treating mastocytosis” (priority 2001, published 2005).
# B1: INFγ: interferon used in the art for mastocytosis (protein, UniProt P01579 24-161, looked up)
# Interferon gamma: QDPYVKEAENLKKYFNAGHSDVADNGTLFLGILKNWKEESDRKIMQSQIVSFYFKLFKNFKDDQSIQKSVETIKEDMNVKFFNSNKKKRDDFEKLTNYSVTDLNVQRKAIHELIQVMAELSPAAKTGKRKRSQMLFRG
# Test system: systemic mastocytosis
# Conditions: person, infiltration of bone marrow, skin and gastric mucosa; recurrence after four months
molecule,measurement,value
B1,clinical outcome in systemic mastocytosis,improvement of the clinical situation and gastrointestinal and hematological signs
